Each block holds one substance with its values, some of them ahead of it.
Assays:
[1] = target: HaloTag-AtCRY2(D387A) (Arabidopsis thaliana); experiment: photon counting histogram (PCH) analysis (fluorescence fluctuation spectroscopy); light state: the same living HEK293T cells measured at once after 5 min of blue light (about 6 mW/cm^2 at the sample plane, 450-490 nm), one 30 s measurement a cell; HaloTag-JF646 fusions; brightness relative to the monomeric standard, corrected for 70% labelling; oligomer percent from a monomer-dimer (VfAuLOV) or monomer-tetramer (AtCRY2) model
[2] = target: HaloTag-AtCRY2(D387A) (Arabidopsis thaliana); experiment: photon counting histogram (PCH) analysis (fluorescence fluctuation spectroscopy); dark state; HaloTag fusions labelled with 200 nM JF646 in living HEK293T cells, UBC promoter, protomer about 50-1,700 nM; single-point measurement of 30 s, 20 kHz binning, 15 ns dead time, ambient temperature (22-23°C); brightness relative to the monomeric HaloTag standard and corrected for 70% labelling; population average; oligomer percent from a monomer-dimer (VfAuLOV) or monomer-tetramer (AtCRY2) model
[3] = target: HaloTag-AtCRY2(R439L) (Arabidopsis thaliana); experiment: photon counting histogram (PCH) analysis (fluorescence fluctuation spectroscopy); light state: the same living HEK293T cells measured at once after 5 min of blue light (about 6 mW/cm^2 at the sample plane, 450-490 nm), one 30 s measurement a cell; HaloTag-JF646 fusions; brightness relative to the monomeric standard, corrected for 70% labelling; oligomer percent from a monomer-dimer (VfAuLOV) or monomer-tetramer (AtCRY2) model
[4] = target: HaloTag-AtCRY2(R439L) (Arabidopsis thaliana); experiment: photon counting histogram (PCH) analysis (fluorescence fluctuation spectroscopy); dark state; HaloTag fusions labelled with 200 nM JF646 in living HEK293T cells, UBC promoter, protomer about 50-1,700 nM; single-point measurement of 30 s, 20 kHz binning, 15 ns dead time, ambient temperature (22-23°C); brightness relative to the monomeric HaloTag standard and corrected for 70% labelling; population average; oligomer percent from a monomer-dimer (VfAuLOV) or monomer-tetramer (AtCRY2) model
[5] = target: HaloTag-AtCRY2(W374A) (Arabidopsis thaliana); experiment: photon counting histogram (PCH) analysis (fluorescence fluctuation spectroscopy); light state: the same living HEK293T cells measured at once after 5 min of blue light (about 6 mW/cm^2 at the sample plane, 450-490 nm), one 30 s measurement a cell; HaloTag-JF646 fusions; brightness relative to the monomeric standard, corrected for 70% labelling; oligomer percent from a monomer-dimer (VfAuLOV) or monomer-tetramer (AtCRY2) model
[6] = target: HaloTag-AtCRY2(W374A) (Arabidopsis thaliana); experiment: photon counting histogram (PCH) analysis (fluorescence fluctuation spectroscopy); dark state; HaloTag fusions labelled with 200 nM JF646 in living HEK293T cells, UBC promoter, protomer about 50-1,700 nM; single-point measurement of 30 s, 20 kHz binning, 15 ns dead time, ambient temperature (22-23°C); brightness relative to the monomeric HaloTag standard and corrected for 70% labelling; population average; oligomer percent from a monomer-dimer (VfAuLOV) or monomer-tetramer (AtCRY2) model
[7] = target: HaloTag-AtCRY2: photolyase homology region of cryptochrome 2 from Arabidopsis thaliana fused to HaloTag (Arabidopsis thaliana); experiment: photon counting histogram (PCH) analysis (fluorescence fluctuation spectroscopy); dissociation kinetics in living HEK293T cells: relative brightness measured at times after a 5-min exposure to blue light was turned off, each measurement 30 s; averaged curves fitted with a single-exponential decay; half-life = ln2 x lifetime
[8] = target: HaloTag-AtCRY2: photolyase homology region of cryptochrome 2 from Arabidopsis thaliana fused to HaloTag (Arabidopsis thaliana); experiment: photon counting histogram (PCH) analysis (fluorescence fluctuation spectroscopy); light state: the same living HEK293T cells measured at once after 5 min of blue light (about 6 mW/cm^2 at the sample plane, 450-490 nm), one 30 s measurement a cell; HaloTag-JF646 fusions; brightness relative to the monomeric standard, corrected for 70% labelling; oligomer percent from a monomer-dimer (VfAuLOV) or monomer-tetramer (AtCRY2) model
[9] = target: HaloTag-AtCRY2: photolyase homology region of cryptochrome 2 from Arabidopsis thaliana fused to HaloTag (Arabidopsis thaliana); experiment: photon counting histogram (PCH) analysis (fluorescence fluctuation spectroscopy); dark state; HaloTag fusions labelled with 200 nM JF646 in living HEK293T cells, UBC promoter, protomer about 50-1,700 nM; single-point measurement of 30 s, 20 kHz binning, 15 ns dead time, ambient temperature (22-23°C); brightness relative to the monomeric HaloTag standard and corrected for 70% labelling; population average; oligomer percent from a monomer-dimer (VfAuLOV) or monomer-tetramer (AtCRY2) model
[10] = target: HaloTag-HsCRY2: human CRY2 photolyase homology region fused to HaloTag (human); experiment: photon counting histogram (PCH) analysis (fluorescence fluctuation spectroscopy); light state: the same living HEK293T cells measured at once after 5 min of blue light (about 6 mW/cm^2 at the sample plane, 450-490 nm), one 30 s measurement a cell; HaloTag-JF646 fusions; brightness relative to the monomeric standard, corrected for 70% labelling; oligomer percent from a monomer-dimer (VfAuLOV) or monomer-tetramer (AtCRY2) model
[11] = target: HaloTag-HsCRY2: human CRY2 photolyase homology region fused to HaloTag (human); experiment: photon counting histogram (PCH) analysis (fluorescence fluctuation spectroscopy); dark state; HaloTag fusions labelled with 200 nM JF646 in living HEK293T cells, UBC promoter, protomer about 50-1,700 nM; single-point measurement of 30 s, 20 kHz binning, 15 ns dead time, ambient temperature (22-23°C); brightness relative to the monomeric HaloTag standard and corrected for 70% labelling; population average; oligomer percent from a monomer-dimer (VfAuLOV) or monomer-tetramer (AtCRY2) model
[12] = target: HaloTag-VfAuLOV: light-oxygen-voltage (LOV) domain of Vaucheria frigida Aurochrome1 fused to HaloTag (Vaucheria frigida); experiment: photon counting histogram (PCH) analysis (fluorescence fluctuation spectroscopy); dissociation kinetics in living HEK293T cells: relative brightness measured at times after a 5-min exposure to blue light was turned off, each measurement 30 s; averaged curves fitted with a single-exponential decay; half-life = ln2 x lifetime
[13] = target: HaloTag-VfAuLOV: light-oxygen-voltage (LOV) domain of Vaucheria frigida Aurochrome1 fused to HaloTag (Vaucheria frigida); experiment: photon counting histogram (PCH) analysis (fluorescence fluctuation spectroscopy); light state: the same living HEK293T cells measured at once after 5 min of blue light (about 6 mW/cm^2 at the sample plane, 450-490 nm), one 30 s measurement a cell; HaloTag-JF646 fusions; brightness relative to the monomeric standard, corrected for 70% labelling; oligomer percent from a monomer-dimer (VfAuLOV) or monomer-tetramer (AtCRY2) model
[14] = target: HaloTag-VfAuLOV: light-oxygen-voltage (LOV) domain of Vaucheria frigida Aurochrome1 fused to HaloTag (Vaucheria frigida); experiment: photon counting histogram (PCH) analysis (fluorescence fluctuation spectroscopy); dark state; HaloTag fusions labelled with 200 nM JF646 in living HEK293T cells, UBC promoter, protomer about 50-1,700 nM; single-point measurement of 30 s, 20 kHz binning, 15 ns dead time, ambient temperature (22-23°C); brightness relative to the monomeric HaloTag standard and corrected for 70% labelling; population average; oligomer percent from a monomer-dimer (VfAuLOV) or monomer-tetramer (AtCRY2) model
[15] = target: HaloTag-bZip-VfAuLOV: VfAuLOV with the basic residues and leucine zipper domain of Vaucheria frigida Aureochrome1, fused to HaloTag (Vaucheria frigida); experiment: photon counting histogram (PCH) analysis (fluorescence fluctuation spectroscopy); dissociation kinetics in living HEK293T cells: relative brightness measured at times after a 5-min exposure to blue light was turned off, each measurement 30 s; averaged curves fitted with a single-exponential decay; half-life = ln2 x lifetime
[16] = target: HaloTag-bZip-VfAuLOV: VfAuLOV with the basic residues and leucine zipper domain of Vaucheria frigida Aureochrome1, fused to HaloTag (Vaucheria frigida); experiment: photon counting histogram (PCH) analysis (fluorescence fluctuation spectroscopy); light state: the same living HEK293T cells measured at once after 5 min of blue light (about 6 mW/cm^2 at the sample plane, 450-490 nm), one 30 s measurement a cell; HaloTag-JF646 fusions; brightness relative to the monomeric standard, corrected for 70% labelling; oligomer percent from a monomer-dimer (VfAuLOV) or monomer-tetramer (AtCRY2) model
[17] = target: HaloTag-bZip-VfAuLOV: VfAuLOV with the basic residues and leucine zipper domain of Vaucheria frigida Aureochrome1, fused to HaloTag (Vaucheria frigida); experiment: photon counting histogram (PCH) analysis (fluorescence fluctuation spectroscopy); dark state; HaloTag fusions labelled with 200 nM JF646 in living HEK293T cells, UBC promoter, protomer about 50-1,700 nM; single-point measurement of 30 s, 20 kHz binning, 15 ns dead time, ambient temperature (22-23°C); brightness relative to the monomeric HaloTag standard and corrected for 70% labelling; population average; oligomer percent from a monomer-dimer (VfAuLOV) or monomer-tetramer (AtCRY2) model

Substance: HaloTag-AtCRY2(D387A) (domain or fragment)
- oligomer percentage (tetramer fraction, monomer-tetramer model) [1]: < 1%
- relative brightness (corrected; monomer = 1, tetramer = 4) [1]: 1.1
- oligomer percentage (tetramer fraction, monomer-tetramer model) [2]: < 1%
- relative brightness (corrected; monomer = 1, tetramer = 4) [2]: 1.1

Substance: HaloTag-AtCRY2: photolyase homology region of cryptochrome 2 from Arabidopsis thaliana fused to HaloTag (domain or fragment)
- dissociation half-life [7]: 4.29 min
- oligomer percentage (tetramer fraction, monomer-tetramer model) [8]: 27%
- relative brightness (corrected; monomer = 1, tetramer = 4) [8]: 2.8
- stoichiometry N [8]: 4
- oligomer percentage (tetramer fraction, monomer-tetramer model) [9]: < 1%
- oligomer percentage (tetramer fraction, monomer-tetramer model; only data above 500 nM) [9]: 1.8%
- relative brightness (corrected; monomer = 1, tetramer = 4) [9]: 1.1
- relative brightness (corrected; only data above 500 nM) [9]: 1.2

Substance: HaloTag-VfAuLOV: light-oxygen-voltage (LOV) domain of Vaucheria frigida Aurochrome1 fused to HaloTag (domain or fragment)
- dissociation half-life [12]: 8.73 min
- oligomer percentage (dimer fraction, monomer-dimer model) [13]: 100%
- relative brightness (corrected; monomer = 1, dimer = 2) [13]: 2
- stoichiometry N [13]: 2
- oligomer percentage (dimer fraction, monomer-dimer model) [14]: 18%
- relative brightness (corrected; monomer = 1, dimer = 2) [14]: 1.3

The remaining lines, values ahead:

- oligomer percentage (tetramer fraction, monomer-tetramer model) [3]: < 1%
- relative brightness (corrected; monomer = 1, tetramer = 4) [3]: 1.1
- oligomer percentage (tetramer fraction, monomer-tetramer model) [4]: < 1%
- relative brightness (corrected; monomer = 1, tetramer = 4) [4]: 1.1
Substance: HaloTag-AtCRY2(R439L) (domain or fragment)

- oligomer percentage (tetramer fraction, monomer-tetramer model) [5]: 20%
- relative brightness (corrected; monomer = 1, tetramer = 4) [5]: 2.5
- oligomer percentage (tetramer fraction, monomer-tetramer model) [6]: 5%
- relative brightness (corrected; monomer = 1, tetramer = 4) [6]: 1.5
Substance: HaloTag-AtCRY2(W374A) (domain or fragment)

- relative brightness (corrected; monomer = 1) [10]: 1.3
- relative brightness (corrected; monomer = 1) [11]: 1.2
Substance: HaloTag-HsCRY2: human CRY2 photolyase homology region fused to HaloTag (domain or fragment)

- dissociation half-life [15]: 6.89 min
- oligomer percentage (dimer fraction, monomer-dimer model) [16]: 67%
- relative brightness (corrected; monomer = 1, dimer = 2) [16]: 1.8
- stoichiometry N [16]: 2
- oligomer percentage (dimer fraction, monomer-dimer model) [17]: 33%
- relative brightness (corrected; monomer = 1, dimer = 2) [17]: 1.5
Substance: HaloTag-bZip-VfAuLOV: VfAuLOV with the basic residues and leucine zipper domain of Vaucheria frigida Aureochrome1, fused to HaloTag (domain or fragment)

Source: paper PMC12661439
